From the DeepSol protein solubility set

Experiment: soluble on expression in E. coli; label from the status in PepcDB or PDB records

Row | Sequence | soluble on expression in E. coli
1 | MGSDKIHHHHHHMLFFINLTLKRGLTTLLENANATINPGQKVGLVGKNGCGKSSLFALLKNEMSAEGGEMSFPPNWALAWVNQETPSLDCRAIDYVIQGDREYSRLQQVLQQANTANDGNAIAVLHNQLDAIDAWTIEARAGELLHGLGFTQAELEQPVKAFSGGWRMRLNLAQALICRSDLLLLDEPTNHLDLDAVIWLERWLKQYPGTLILISHDRDFLDPIVGKILHIEQQKLNEYTGDYSSFEQQRATKLAQQNAMYRQQQLKIDHLQRYIDRFKAKATKAKQAQSRIKALERMEKIAPAYVDNPFHFEFREPLSLPNPLLMMENASVGYGEGEKSAVEILSKIKLNLVPGSRIGLLGKNGAGKSTLIKLLAGEIAPTGGTIQLAKGVQLGYFVQHQLDTLRADESALWHLQKIAPQQTEQQLRDYLGGFAFHGDKVNQPVASFSGGEKARLVLALIVWQRPNLLLLDEPTNHLDFRYASGVNGSLGGLSGLFGVGVARSPFIA | not soluble
2 | AVPETRPNHTIYINNLNEKIKKDELKKSLYAIFSQFGQILDILVSRSLKMRGQAFVIFKEVSSATNALRSMQGFPFYDKPMRIQYAKTDSDIIAKMKGTFVERDRKREKRKPKSQE | soluble
3 | MDALKLLTNRRSSKKLKHPAPDAAELEQIFQAATQVPDHGNMRPFRFTVIQGEVGLQRFRDVLKQTVAELNFGDDAMKKAEKVGNMAPMVIGVTFAPNRDVPKPKPEWEQMLTAGCAAYALQLAATAQGFDNVWITGMWVNSPLLREAFGCADKDKIIGLMMVGTPTEEVHKPKNTDLEAFVSHW | not soluble
4 | MNAHDEVQRTLNPTCTGTSVIALQYKTGVVVLTDRVVSYGKMARYKNVSRQYKVNDNVLIAFGGDHADFHWLQNVIERQVLLWKRFDQDIGPKALHGYLTSLLYAKRCKMNPVWNTLVVAGVEEEEKNNKETSTPFIGVITQKGCAYQVKHIATGLGAFLLNQAVEDEWRKKGEDLSREEAEAVLRKSLELTLYHDCVADNEFEIGRVDATEGVVLGKEEKIIGDWSIAETNCQYE | not soluble
5 | MSHPVVIKENMTVYDAICTIFLEDVSTLFITNENNDFVGVCSRKDLLRASMIGEDIHTMPISVNMTRMPHVSYLKEQELVIYAANQMIDKEIDSLPIVRPKENDKFEVIGRISKTTITKLFVSLFKE | not soluble
6 | MDKTQSYDIFLIAPPGLEQVLAEEATACGFDEPRVVPGGVETRGPWSEVMRANLVLRGAGRVLVRIGGFPAVHLAQLDKRARKFAWGDFLRPDRPIRVEAVSRKSKIYHAGAAKQRVERAITEELGAPISDEAEIRLMLRIERDFCTFSIDTSGEALHKRGHKEAVGKAPMRETMAALFLRQCGFDGAEPVLDPMCGSGSFVIEAAEWAAGLMPGRSRSFAFEQLAGFDAAQWQSMRNAAGAGGRPESLYSGSDRNAGAIDASRANATRAGVADFCAFHQRPVSDIRPPEGRPGLVIVNPPYGARIGDQARLRSLYGSLGKVLMDRFSGWRVGLITSEMSLARSTRLPFQAPGPVVDHGGIKVRLYQSVRLR | not soluble
7 | MRLFHTSDWHLGQNLHGQERDFEHACFLTWLLARLAERQPDVLLIAGDIFDTVNPPVKAQERLYDFIVNAHEQQPLLTIVMIAGNHDSGSRIELPAPLMRRLRTHALGRVMWLNDGVLDAERLLLPLPDANGDIKAWCLALPFLRPAEVTGPTLGDDYLRGIGRVHELLIDAANLKRQPGQALIAISHAHMAGGSVSEDSERSLIIGNAEALPASLFGPSITYVALGHLHKPQRVNGEERIRYSGSPIPLSFSEIGYQHQILEINCDGDTLTSVEPCLIPRAVNLQRLGPAPLADLLVQLKSLPDIDLLADPDRQPWLEVRVRLDEPQPDLRNQIETALQGKAVRLVRIGAEYAGKGSADGSDGEAGLIELDQLTPQELFSRAWQDNFGSEVDEQTLTDFATLLREVQQESEQP | not soluble
8 | MAEVITVKQTNMENIYECEFNDGSFRLCTRNLVPNFNVYGERLIKYEGVEYREWNAFRSKLAGAILKGLKTNPIRKGTKVLYLGAASGTTISHVSDIIELNGKAYGVEFSPRVVRELLLVAQRRPNIFPLLADARFPQSYKSVVENVDVLYVDIAQPDQTDIAIYNAKFFLKVNGDMLLVIKARSIDVTKDPKEIYKTEVEKLENSNFETIQIINLDPYDKDHAIVLSKYKG | soluble
9 | NGVPSTNVNTPAPNTGQSTAQNTNTASPLPYNRATTLPAAGTEDLKKSVQALQNTLTELQALQLQTKQAHWNVSGTLWYTLHELLQDHYEGISKFADDVAERQLSVGASSDGRAITIVAASRLPEIPGGFLDDAQVIQFFTYQYETVGQRIHQRVGDVEKVDPTTANLLQEVEHIIEKYQWQMRAFLQNTPTDPNTGFDINNGKPVPLRGR | soluble
10 | MVPPTINTGKNITTERAVLTLNGLQIKLHKVVGESRDDIVAKMKDLAMDDHKFPRLPGPNPVSIERKDFEKLKQNKYVVSEKTDGIRFMMFFTRVFGFKVCTIIDRAMTVYLLPFKNIPRVLFQGSIFDGELCVDIVEKKFAFVLFDAVVVSGVTVSQMDLASRFFAMKRSLKEFKNVPEDPAILRYKEWIPLEHPTIIKDHLKKANAIYHTDGLIIMSVDEPVIYGRNFNLFKLKPGTHHTIDFIIMSEDGTIGIFDPNLRKNVPVGKLDGYYNKGSIVECGFADGTWKYIQGRSDKNQANDRLTYEKTLLNIEENITIDELLDLFKWE | soluble
11 | SLLPQAVTQFEELVGMAEALLKGGGTMSTSASTLWRATNNSSPDSFASTCSNSNSNSSSPVSLKPEEEHQTDEKQFQIEKWQIARCNKSKPQKFINDLMQVLYTNEYMATHSLTGAKSSTSRDKAVKPAMNQNEVQEIIGVTKQLFPNTDDVSIRRMIGQKLNNCTKKPNLSKNLNSQDIK | soluble
12 | MRLEVFCEDRLGLTRELLDLLVLRGIDLRGIEIDPIGRIYLNFAELEFESFSSLMAEIRRIAGVTDVRTVPWMPSEREHLALSALLEALPEPVLSVDMKSKVDMANPASCQLFGQKLDRLRNHTAAQLINGFNFLRWLESEPQDSHNEHVVINGQNFLMEITPVYLQDENDQHVLTGAVVMLRSTIRMGR | soluble
13 | MGSDKIHHHHHHAASEAEYGKVSKAWTLHADGSQEYRSSMELTLFTHTAMNSTYGESFIVYNPDFQTLKIHSSYTRQKDGTIVKTPDNAFVEVLPRFAADAPAYNQLKEMVVVHTGLELGATIYLDYSIITKPGYYPALDINERLQETSPVKECKVSISVPEGTPLACGLYGSPVKAVEESHDGIKEVHWTLRNIPASSREAFQPKNREASPHLVASTYPSGKAALATLDKRLKESQGYESKTFAQFLTDKSGNEQEKVNIIRDHILNNLSTCPIPMAMTGYTVRDIDTVLRSAYGTPLEIAQLLNVMLNAAGIPSEVLAVYPGHLDTDACGLAAIQTLAVKATVDGKDQYLSASPLTNRGGLDKVVSLSGTSIEIETTPIQIKESRSVAISADQAKDGFAICVLPAISAGIDSWGMSALNSKRSNLFELPSLIREEVTYTVTPAEGMKLQTSTQEQVISKPFGKVTRTITPRGNTIEVVRTIELNKQQFTPAEYSDVRSLIHEWTNPDNRVLLFSL | not soluble
14 | MTTAITPDKKKLVSPKPTKTTSDKSKTKPRRSSKTSKKRKSKKGLFGCCAKKRKTKRSKKSAKRTKRSAPKKAPKKAPMKAPSKPAAKLVPQQAQASLQKPIQSGIVDADATVKTVVPRPPTPIPPTGVKPEPAPRSEPLYQPRSVSSTTPRTSATTGTTEQMVTAPATLPPPSAESKHLPQDPPGDASSPRVQRQYTAEKYSKEDQDDDDQKDLRKSVAYPSHKFFMTQYVKDECRVRRWVYEDSVPLMMESNMKHMLRMASNRIAACQSDKARRCDMMKDLNEMTEILDGNF | not soluble
15 | SAMAQKEEGHEAAAAEAKKETDLAHVDQVETFVGKEKYYVVKGTDKKGTALYVWVPADKKAKILSKEAKEGISEDKAAKIIKDEGLVSKQKEVHLAREGNVLLWEVTYLDKEGQYSLSYVDFTTGKILKNITP | soluble
16 | MHNFIYITAPSLEEAERIAKRLLEKKLAACVNIFPIKSFFWWEGKIEAATEFAMIVKTRSEKFAEVRDEVKAMHSYTTPCICAIPIERGLKEFLDWIDETVE | soluble
17 | TFDIDLQQYGEKLLQNKIGCVVAIEPQTGEILAFISSPTYDPNLLTGRKYSANYKELEKDPYKPLFNRPLMAMYPPGSIFKLAQAAVALQEGVITDKSRFPCDKTLVNCHNHPSPQDLRGAIQWSCNPYFYMVYKKMISQDKNPNKFKDTEINFDEWRHNMLTLGFGQKMLVDLPSSKSGNIPSNAYYDKIYGDLHWKFSTIYSLSIGQGEINVVPIQMANLAALIANKGWYITPHFIKSIGKDGHILEEYKNKHVTSVEPKYFEPIIDGMEQVVLGGTAYWLKIKDIDICGKTGTAENPHGDDHSVYIAFAPKKEPKIAIAVYVENAGFGAMTAAPIAHLMIEKYLKDTITRKPLEDMILNKNLLHKVKVKP | not soluble
18 | MGKYQPSFQTKKGWTEVICGPMFSGKTEKLLHKIKRWKIAKISVVIFKPIIDTRQTNIVKSRNGEYDQAITINSPFEIYDHLVDKNYQIVAIDEAQFFSNEIIEVVTTLNEIGTNVIISGLDTDFRAEPFGCIPQLLAIADVVNKLDAICNVCGSLAQRTQRLVNKNTNDNLVLIGDAEAYEARCKLHHSFLTKKHVTVKTKNFKEQVQGKTQLEHHHHHH | not soluble
19 | SGTNDAEDCCLSVTQKPIPGYIVRNFHYLLIKDGCRVPAVVFTTLRGRQLCAPPDQPWVERIIQRLQRTSAKMKRRSS | soluble
20 | MQQVIPAPRVQVTQPYAGQKPGTSGLRKKVSEATQPNYLENFVQSIFNTLRKDELKPKNVLFVGGDGRYFNRQAIFSIIRLAYANDISEVHVGQAGLMSTPASSHYIRKVNEEVGNCIGGIILTASHNPGGKEHGDFGIKFNVRTGAPAPEDFTDQIYTHTTKIKEYLTVDYEFEKHINLDQIGVYKFEGTRLEKSHFEVKVVDTVQDYTQLMQKLFDFDLLKGLFSNKDFSFRFDGMHGVAGPYAKHIFGTLLGCSKESLLNCDPSEDFGGGHPDPNLTYAHDLVELLDIHKKKDVGTVPQFGAACDGDADRNMILGRQFFVTPSDSLAVIAANANLIFKNGLLGAARSMPTSGALDKVAAKNGIKLFETPTGWKFFGNLMDAGLINLCGEESFGTGSNHIREKDGIWAVLAWLTILAHKNKNTDHFVTVEEIVTQYWQQFGRNYYSRYDYEQVDSAGANKMMEHLKTKFQYFEQLKQGNKADIYDYVDPVDQSVSKNQGVRFVFGDGSRIIFRLSGTGSVGATIRIYFEQFEQQQIQHETATALANIIKLGLEISDIAQFTGRNEPTVIT | soluble
21 | RHAIAETLSQEIKQELKDLYMDKADFKVVFTKGKFNREGNETVAFHISTNPGEDFKPLVKVASGGELSRLMLAIKSAFSRREDKTSIVFDEVDTGVSGRVAQAIAQKIYKIGNHGQVLAISHIPQVIAISDYQYFIEKQSSKATTVSTVRLLNQEERIEEIAKML | not soluble
22 | MGSDKIHHHHHHMAEFPASLLILNGKSTDNLPLREAIMLLREEGMTIHVRVTWEKGDAARYVEEARKFGVATVIAGGGDGTINEVSTALIQCEGDDIPALGILPLGTANDFATSVGIPEALDKALKLAIAGDAIAIDMAQVNKQTCFINMATGGFGTRITTETPEKLKAALGSVSYIIHGLMRMDTLQPDRCEIRGENFHWQGDALVIGIGNGRQAGGGQQLCPNALINDGLLQLRIFTGDEILPALVSTLKSDEDNPNIIEGASSWFDIQAPHDITFNLDGEPLSGQNFHIEILPAALRCRLPPDCPLLR | not soluble
